Test system: MS2 coat protein
Experiment: apparent KD of MS2 coat protein; designed switch direction (-1 OFF switch, 1 ON switch): -1; higher = weaker reporter binding
How it was run: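 SNAP-549-labelled MS2 coat protein was titrated, doubling from 0.7 or 1.5 nM to 3 µM, over designed RNA switches transcribed on Illumina chips by stalled E. coli RNA polymerase. Runs were done without input, with 200 uM small-molecule ligand, or with an oligonucleotide input. Apparent KD is the per-design median over clusters of curve-fitted normalised fluorescence.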

[1] = input ligand: microRNA oligo, concentration not stated
[2] = Eterna round: R95, input ligand: FMN 200 uM
[3] = Eterna round: R95, input ligand: microRNA oligo, concentration not stated
[4] = Eterna round: R95, input ligand: none

| Sequence | apparent KD of MS2 coat protein (input ligand: FMN 200 uM) [nM] | apparent KD of MS2 coat protein [1] [nM] | apparent KD of MS2 coat protein (input ligand: none) [nM] | apparent KD of MS2 coat protein [2] [nM] | apparent KD of MS2 coat protein [3] [nM] | apparent KD of MS2 coat protein [4] [nM] |
| --- | --- | --- | --- | --- | --- | --- |
| CCUGCGGACAAAGGAUAUUGCGGUGGCCGGCUCGGCGUACCGAGCCUACAUGAGGAUCACCCAUGUAAGAAGGUUGUCGUUGGA [Mat - Exclusion NG 2 - Mod of JL - D71] (Eterna round: R96, puzzle: Exclusion NG 2) | 228 | 27 | 40.1 |  |  |  |
| CCUGGGUCAUCGCCCAGGAACAACAUGAGGAUCACCCAUGUCUAGGAUAUCCACCAGUCAAUAAAGGAGAAGGAGACGGUGGUU [Enusonor] (Eterna round: R96, puzzle: Exclusion NG 3) | 22.9 | 14.6 | 21.2 |  |  |  |
| CCUUACCGAGGAUAUACAUGAGGAUCACCCAUGUGAUCCUAAGGCUGAUCAAGCCUAUGUAGAAGGCGCAAAUC [salish99_ex3_r4_004] (Eterna round: R97, puzzle: Exclusion 3) | 160 |  | 130 |  |  |  |
| CCUUCCCGAGGAUAUACAUGAGGAUCACCCAUGUGAUCCUAAGGCUGAUCAAGCCUAUGUAGAAGGCGCAAAUC [salish99_ex3_r4_006] (Eterna round: R97, puzzle: Exclusion 3) | 35.1 |  | 38.4 |  |  |  |
| CCUUGUGUUGAGGAUAUGCGCCGGCUCGCUGGCGCAGAAGGCGGCACAUGAGGAUCACCCAUGUCAGUUCGCGA [salish99_ex6_r004_012] (Eterna round: R97, puzzle: Exclusion 6) | 336 |  | 29.2 |  |  |  |
| CGAUAAAAGACAGGAUAUGAGGAGAGAGAGAGAUCAGAAGGGUCACAUGAGGAUCACCCAUGUGAGUUCUCGAAAUUAAAUAUU [Prohibition 50 - Jieux - Exclusion NG 1] (Eterna round: R96, puzzle: Exclusion NG 1) | 18.8 | 14.2 | 18.8 |  |  |  |
| CGAUAAAAGACAGGAUAUGAGGAGAGAGAGAGAUCAGAAGGGUCACAUGAGGAUCACCCAUGUGAGUUCUCGAUAAGAAACACC [Prohibition 53 - Jieux - Exclusion NG 1] (Eterna round: R96, puzzle: Exclusion NG 1) | 13.8 | 14.5 | 19.3 |  |  |  |
| CGAUGCUCGAGUCGACAUGAGGAUCACCCAUGUACAGUUAGUGAGGAUAUCGGAGACACAUAGUAUGAGAAGGCGCGAACGUGA [Ex NG3 #16] (Eterna round: R96, puzzle: Exclusion NG 3) | 76.7 | 41.4 | 40.3 |  |  |  |
| CGCCCUCCGGUGAGGAUAUUGCCCACCAUGGUCGGCAAGAAGGCACUUGAGGAUCACCCAAGUAAAACAAAUAA [Beraus] (Eterna round: R97, puzzle: Brourd's mod of Exclusion 4) | 450 |  | 34.8 |  |  |  |
| CGCCUGUAAGGAUAUUAGUAGUAGUCAGAAUAGACUAUUACUGAGAAGGUACAUGAGGAUCACCCAUGUUGGCG [Eli x4 4.10] (Eterna round: R97, puzzle: Exclusion 4) | 19.7 |  | 18.5 |  |  |  |
| CGCCUGUGAGGAUAUUAGUAGUAGUCAGAAAAGACUAUUACUGAGAAGGUACAUGAGGAUCACCCAUGUUGGCG [Mat - Exclusion 4 - Eli Mod - D41] (Eterna round: R97, puzzle: Exclusion 4) | 14.8 |  | 20 |  |  |  |
| CGCUAGUCAGGAUAUACGAACAUGUCAAAAGACGUGAAGGGACAUGAGGAUCACCCAUGUAGAAGGGACUAGCA [salish99_ex2_r3_014] (Eterna round: R96, puzzle: Exclusion 2) | 165 | 22.2 | 31.5 |  |  |  |
| CGCUAGUCAGGAUAUACGAACAUGUCAAAAGACGUGAAGGGACAUGAGGAUCACCCAUGUAGAAGGGACUAGCA [salish99_ex2_r3_014] (puzzle: Exclusion 2) |  |  |  | 147 | 22.5 | 24.9 |
| CGCUGGACAGGAUAUGUUCUUGGGCACUUGAGGAUCACCCAAGUCAUCAAGACAACAGGCACAGAAGGGUUUAUGG [salish99_ex5_r4_023] (Eterna round: R97, puzzle: Exclusion 5) | 20.6 |  | 18.4 |  |  |  |
| CGCUGGACAGGAUAUGUUCUUGGGCACUUGAGGAUCACCCAAGUCAUCGGGACAUCAGGCACAGAAGGGUUUUUGG [salish99_ex5_r4_027] (Eterna round: R97, puzzle: Exclusion 5) | 18 |  | 20.5 |  |  |  |
| CGCUGGACAGGAUAUGUUUUUGGGCACUUGAGGAUCACCCAAGUCAUCAAGAAAACAGGCACAGAAGGGUUUAUGG [salish99_ex5_r4_022(!)] (Eterna round: R97, puzzle: Exclusion 5) | 28 |  | 25.1 |  |  |  |
| CGGAGCAGAGGGAGAUCCAACAUGAGGAUCACCCAUGUCUCACAAGCUUUUUGCUCGUCUUAUUGUACCUUGGUGCU [JL ViennaUCT Edcesobi mod 7] (puzzle: Sensor v3, turn-off variant 1) |  |  |  | 64.5 | 11.1 | 49.1 |
| CGGAGCAGAGGGAGAUCCAACAUGAGGAUCACCCAUGUCUCAUAAGCUUUUUGCUCAUCUUAUUGUACCUUGGUGCU [JL ViennaUCT Edcesobi mod 5] (puzzle: Sensor v3, turn-off variant 1) |  |  |  | 37.3 | 15.4 | 46.4 |
| CGGCAAUCCUAGGAUAUGCUAGACGAAAGUCUAGCAGAAGGAGGAACAUGAGGAUCACCCAUGUGUCCUAGCCG [Eli x6 4.02] (Eterna round: R97, puzzle: Exclusion 6) | 23.5 |  | 20.2 |  |  |  |
| CGGGACCGAGGAUAUACAUGUGGACUCGAGUUGACGUUGGGACAUGAGGAUCACCCAUGUAGAAGGCGGAUCUU [Eternabot (L2) Solution 57] (Eterna round: R97, puzzle: Exclusion 2) | 270 |  | 741 |  |  |  |
| CGGGACGUCCUGAUAAUAAGACAUGAGGAUCACCCAUGUCGGCAGGAUAUCAGUCCUUACGGUUAUGAGAAGGGUCGGCAACCA [Quatis] (Eterna round: R96, puzzle: Exclusion NG 3) | 10.9 | 9.05 | 11.6 |  |  |  |
| CGGGAGGGACAAGCUUUUUGCACGUCUGUUAUUGAUGCAACAUGAGGAUCACCCAUGUUUAGGGUGUGAGAGGAUGG [JR_SV3TOV2_Sub051] (puzzle: Sensor v3, turn-off variant 2) |  |  |  | 373 | 471 | 553 |
| CGGGUCUGAGGAUAUCCACCCUCAUACAUGAGGAUCACCCAUGUUCACCCUUGGGUUCCCGGAGAAGGCAGUUUUC [Megrez-3.6] (Eterna round: R97, puzzle: Exclusion 5) | 275 |  | 208 |  |  |  |
| CGGGUGAACAGAGGAUAUCGUACAUGAGGAUCACCCAUGUAAUAAAUGAGAAUUUCGAAUGUAAUCGAGAAGGCUGGAAAACCC [Ostracism 93 - Jieux - Exclusion NG 2] (Eterna round: R96, puzzle: Exclusion NG 2) | 228 | 115 | 128 |  |  |  |
| CGGUGCUGAGGAUAUACAUGAGGAUCACCCAUGUGUGCCAGCUAGAAGACUGGCACUUGUAGAAGGCAGUACUG [Mat - Exclusion 3 - Mod of JL D90] (puzzle: Exclusion 3) |  |  |  |  | 10.3 |  |
| CGUACUGAAGUGAGGAUAUUGUCUCGGAUACGAAACAAGAAGGCACAUGAGGAUCACCCAUGUAAACAGUACGA [Malc #30 mod 10] (puzzle: Brourd's mod of Exclusion 4) |  |  |  |  | 15.6 |  |
| CGUGGACUAGGAUAUUUACGAGGCUACAUGAGGAUCACCCAUGUGUUCUCGAGUACCAUGAAAGAAGGAGUAGCGA [Betiatte] (puzzle: Exclusion 5) |  |  |  |  | 12 |  |
| CGUUUGCAUUUUGCUCGUCACAUGAGGAUCACCCAUGUUAUGCUACAGUACGCUAGGAUCGGCGUCUGAGGGCUUUA [Eternabot (Original) Solution 1] (Eterna round: R97, puzzle: Sensor, turn-off variant 1) | 25.2 |  | 27.7 |  |  |  |
| CUAAUACAUCAGGAUAUCUAUGAUUAUAGCCAUAGAGAAGGGAUGACAUGAGGAUCACCCAUGUCAAAGGGUGA [eternacac ex6r4 sub21] (Eterna round: R97, puzzle: Exclusion 6) | 426 |  | 879 |  |  |  |
| CUAGCGAUUGUAGGAUAUCGGACUGUUUCAGUCUGAGAAGGACAUGAGGAUCACCCAUGUGAAGCUACGUGAGUAGCACGCUAG [JL ENG1 3.84] (Eterna round: R96, puzzle: Exclusion NG 1) | 46.1 | 15.4 | 24.5 |  |  |  |

— the supplement of paper PMC9170038
